Results: the Immune Epitope Database (IEDB)

Columns and labels:
[1] = molecular target: HLA-A*01:01; experiment: IEDB peptide-MHC binding, purified MHC/competitive/radioactivity; filed as Kd, often an IC50 or EC50 that approximates it; ≥ and ≤ were set here for values at or beyond the usual limits of such assays
[2] = molecular target: HLA-A*30:01; experiment: as above
[3] = molecular target: HLA-A*30:02; experiment: as above
[4] = molecular target: HLA-A*32:01; experiment: as above
[5] = molecular target: HLA-A*29:02; experiment: as above
[6] = molecular target: HLA-A*26:01; experiment: as above
[7] = molecular target: HLA-B*40:01; experiment: as above
[8] = molecular target: HLA-B*45:01; experiment: as above
[9] = molecular target: HLA-B*18:01; experiment: as above
[10] = molecular target: HLA-B*44:03; experiment: as above
[11] = molecular target: HLA-B*40:02; experiment: as above
[12] = molecular target: HLA-B*44:02; experiment: as above
[13] = molecular target: HLA-A*68:02; experiment: as above
[14] = molecular target: HLA-A*02:06; experiment: as above
[15] = molecular target: HLA-A*02:01; experiment: as above
[16] = molecular target: HLA-B*51:01; experiment: IEDB peptide-MHC binding, purified MHC/competitive/fluorescence; filed as Kd, often an IC50 or EC50 that approximates it; ≥ and ≤ were set here for values at or beyond the usual limits of such assays; details: source organism: Vibrio antiquarius
[17] = molecular target: HLA-A*02:02; experiment: IEDB peptide-MHC binding, purified MHC/competitive/radioactivity; filed as Kd, often an IC50 or EC50 that approximates it; ≥ and ≤ were set here for values at or beyond the usual limits of such assays
[18] = molecular target: HLA-A*02:03; experiment: as above
[19] = molecular target: HLA-B*08:01; experiment: IEDB peptide-MHC binding, purified MHC/direct/fluorescence; filed as Kd, often an IC50 or EC50 that approximates it; ≥ and ≤ were set here for values at or beyond the usual limits of such assays; details: source organism: Salmonella enterica subsp. enterica serovar Typhimurium str. LT2
[20] = molecular target: HLA-B*15:01; experiment: IEDB peptide-MHC binding, purified MHC/competitive/fluorescence; filed as Kd, often an IC50 or EC50 that approximates it; ≥ and ≤ were set here for values at or beyond the usual limits of such assays; details: source organism: Bacillus anthracis str. A2012
[21] = source organism: Mammarenavirus brazilense
[22] = source organism: Mammarenavirus machupoense
[23] = source organism: Dengue virus 2 Jamaica/1409/1983
[24] = source organism: Dengue virus 3 Martinique/1243/1999
[25] = source organism: Dengue virus 4 Philippines/H241/1956
[26] = source organism: SARS coronavirus Tor2
[27] = source organism: Mammarenavirus lassaense
[28] = source organism: Trypanosoma cruzi

Q: Which Kd [1, 21] does the source give for EMFKTKGRY here?
A: ≥ 32 µM

Q: What about the Kd [2, 21] of the same sequence?
A: 8.95 µM

Q: And the Kd [3, 21]?
A: 0.131 µM

Q: And the Kd [4, 21]?
A: ≥ 77.8 µM

Q: And the Kd [5, 21]?
A: 11.5 µM

Q: And the Kd [6, 21]?
A: 0.65 µM

Q: Which Kd [7, 22] does the source give for PDIGELFGL here?
A: 12.7 µM

Q: And the Kd [8, 22]?
A: ≥ 77.7 µM

Q: And the Kd [9, 22]?
A: ≥ 77.5 µM

Q: What about the Kd [10, 22] of the same sequence?
A: ≥ 66.6 µM

Q: And the Kd [11, 22]?
A: ≥ 22.1 µM

Q: And the Kd [12, 22]?
A: ≥ 77.9 µM

Q: How did the Kd [13, 23] turn out when LTYVVIAILT was run?
A: 0.173 µM

Q: Which Kd [13, 24] does the source give for YVVIGILTLA here?
A: 0.123 µM

Q: And the Kd [14, 24]?
A: 0.0474 µM

Q: What does the source list for MTTEDMLKV?
A: Kd [1, 25]: ≥ 22.8 µM; Kd [13, 25]: 0.0418 µM

Q: With YDQLLDSSL as the sequence, how does the Kd [7, 21] read?
A: 9.99 µM

Q: What about the Kd [8, 21] of the same sequence?
A: ≥ 77.7 µM

Q: And the Kd [9, 21]?
A: 15.4 µM

Q: And the Kd [10, 21]?
A: ≥ 78.1 µM

Q: And the Kd [11, 21]?
A: 0.273 µM

Q: What about the Kd [12, 21] of the same sequence?
A: ≥ 26.5 µM

Q: For TMEAMRIMGI, which Kd ([13]; source organism: Homo sapiens) is on record?
A: 0.0219 µM

Q: For IISLWDQSL, which Kd ([15]; source organism: HIV-1 M:B_MN) is on record?
A: 0.279 µM

Q: With RERVNINIV as the sequence, how does the Kd [7, 26] read?
A: 10.7 µM

Q: And the Kd [8, 26]?
A: 0.265 µM

Q: What about the Kd [9, 26] of the same sequence?
A: ≥ 37.8 µM

Q: And the Kd [10, 26]?
A: ≥ 38.2 µM

Q: What about the Kd [11, 26] of the same sequence?
A: 0.026 µM

Q: What about the Kd [12, 26] of the same sequence?
A: ≥ 35.4 µM

Q: For SLTCEVDAL, which Kd ([13]; source organism: Homo sapiens) is on record?
A: 3.12 µM

Q: How did the Kd [13, 25] turn out when TTAKEVALL was run?
A: 0.0218 µM

Q: What about the Kd [6, 25] of the same sequence?
A: 1.9 µM

Q: For AEISGSSPIL, which Kd [7, 23] is on record?
A: 0.00104 µM

Q: What about the Kd [2, 23] of the same sequence?
A: 16.1 µM

Q: And the Kd [10, 23]?
A: 0.00675 µM

Q: And the Kd [12, 23]?
A: 0.00616 µM

Q: For KTGECSKCY, which Kd [1, 27] is on record?
A: 12.8 µM

Q: What about the Kd [2, 27] of the same sequence?
A: 18.6 µM

Q: What about the Kd [3, 27] of the same sequence?
A: 0.834 µM

Q: What about the Kd [4, 27] of the same sequence?
A: 6.79 µM

Q: What about the Kd [5, 27] of the same sequence?
A: 10.2 µM

Q: What about the Kd [6, 27] of the same sequence?
A: ≥ 77.9 µM

Q: For MVNGVVKLL, which Kd ([13]; source organism: Dengue virus 1 Singapore/S275/1990) is on record?
A: 0.0602 µM

Q: Which results are given for TEFQSVTFTM?
A: Kd [7, 22]: 1.57 µM; Kd [8, 22]: 13.6 µM; Kd [9, 22]: 0.0328 µM; Kd [10, 22]: 0.636 µM; Kd [11, 22]: 0.126 µM; Kd [12, 22]: 1.16 µM

Q: IPVEPAFQV was tested. Which Kd [16] did it give?
A: 0.254 µM

Q: RLSSNSRIL was tested. Which Kd ([15]; source organism: Hepatitis B virus) did it give?
A: ≥ 10 µM

Q: Which Kd [7, 26] does the source give for VESSSKLWA here?
A: ≥ 42.2 µM

Q: And the Kd [8, 26]?
A: 0.267 µM

Q: What about the Kd [9, 26] of the same sequence?
A: 1.25 µM

Q: And the Kd [10, 26]?
A: 1.6 µM

Q: What about the Kd [11, 26] of the same sequence?
A: 3.16 µM

Q: What about the Kd [12, 26] of the same sequence?
A: 3.34 µM

Q: How did the Kd [7, 26] turn out when GDRWFLNRFT was run?
A: ≥ 69.6 µM

Q: And the Kd [8, 26]?
A: ≥ 70 µM

Q: And the Kd [9, 26]?
A: ≥ 70.5 µM

Q: And the Kd [10, 26]?
A: ≥ 70.1 µM

Q: And the Kd [11, 26]?
A: ≥ 70.8 µM

Q: What about the Kd [12, 26] of the same sequence?
A: ≥ 70.2 µM

Q: For REIGSLLHGL, which Kd [7, 21] is on record?
A: 9.19 µM

Q: What about the Kd [8, 21] of the same sequence?
A: 2.75 µM

Q: What about the Kd [9, 21] of the same sequence?
A: ≥ 30.4 µM

Q: And the Kd [10, 21]?
A: 0.878 µM

Q: And the Kd [11, 21]?
A: 0.00584 µM

Q: What about the Kd [12, 21] of the same sequence?
A: 0.764 µM

Q: SLLMWITQC was tested. Which Kd ([15]; source organism: Homo sapiens) did it give?
A: ≥ 21.1 µM

Q: Which Kd [7, 26] does the source give for NECAQVLSEM here?
A: 0.801 µM

Q: What about the Kd [8, 26] of the same sequence?
A: 4.95 µM

Q: And the Kd [9, 26]?
A: 0.177 µM

Q: And the Kd [10, 26]?
A: 0.121 µM

Q: What about the Kd [11, 26] of the same sequence?
A: 12.2 µM

Q: What about the Kd [12, 26] of the same sequence?
A: 0.253 µM

Q: For HVGRPTTVV, which Kd [17, 28] is on record?
A: 1.06 µM

Q: And the Kd [13, 28]?
A: 0.0211 µM

Q: What about the Kd [14, 28] of the same sequence?
A: 0.639 µM

Q: What about the Kd [15, 28] of the same sequence?
A: 9.86 µM

Q: And the Kd [18, 28]?
A: 0.452 µM

Q: For NLPIYSEEI, which Kd ([17]; source organism: Homo sapiens) is on record?
A: 0.0771 µM

Q: What about the Kd ([13]; source organism: Homo sapiens) of the same sequence?
A: 0.0393 µM

Q: What about the Kd ([14]; source organism: Homo sapiens) of the same sequence?
A: 0.0275 µM

Q: And the Kd ([15]; source organism: Homo sapiens)?
A: 0.0666 µM

Q: And the Kd ([18]; source organism: Homo sapiens)?
A: 0.39 µM

Q: Which Kd [19] does the source give for TMRLRSEVL here?
A: 0.022 µM

Q: Which Kd [20] does the source give for IAIEFKSRF here?
A: 0.279 µM

Q: Which Kd [7, 26] does the source give for LEQWNLVIGF here?
A: 3.94 µM

Q: What about the Kd [8, 26] of the same sequence?
A: 3.98 µM

Q: And the Kd [9, 26]?
A: 0.155 µM

Q: And the Kd [10, 26]?
A: 0.0488 µM

Q: What about the Kd [11, 26] of the same sequence?
A: 0.565 µM

Q: What about the Kd [12, 26] of the same sequence?
A: 0.0161 µM

Q: How did the Kd [7, 21] turn out when HENKNATWCL was run?
A: 0.915 µM

Q: And the Kd [8, 21]?
A: 5.06 µM

Q: What about the Kd [9, 21] of the same sequence?
A: 16.6 µM

Q: And the Kd [10, 21]?
A: 15.3 µM

Q: What about the Kd [11, 21] of the same sequence?
A: 0.0544 µM

Q: What about the Kd [12, 21] of the same sequence?
A: 4.54 µM
